Measurements from publication PMC5418627.

Target: T1, IRF3 (human (endogenous in HEK293T)), Q14653
T1 chain: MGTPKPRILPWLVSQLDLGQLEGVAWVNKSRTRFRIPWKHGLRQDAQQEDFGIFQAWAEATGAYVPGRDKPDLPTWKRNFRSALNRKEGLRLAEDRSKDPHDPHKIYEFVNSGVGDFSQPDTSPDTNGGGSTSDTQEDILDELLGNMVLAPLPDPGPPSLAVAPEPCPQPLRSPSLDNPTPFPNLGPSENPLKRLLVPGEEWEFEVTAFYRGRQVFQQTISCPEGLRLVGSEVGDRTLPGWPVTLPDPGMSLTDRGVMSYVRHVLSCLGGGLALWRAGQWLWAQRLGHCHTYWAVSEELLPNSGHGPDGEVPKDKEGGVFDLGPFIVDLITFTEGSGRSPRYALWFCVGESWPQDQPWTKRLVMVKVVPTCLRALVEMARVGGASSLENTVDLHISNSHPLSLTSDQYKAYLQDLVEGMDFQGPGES
Experiment: native gel or EMSA; cell-free assay: HEK293T S1 crude lysate with vRNA, 30 °C, 1 h; Native-PAGE and immunoblotting of IRF3
Conditions: remark: other sources report otherwise

B1: IRF3, Q14653 1-427 (natural protein)
chain: T1 chain
- stoichiometry N: 2
